Assay results taken from patent US20260078171A1.

Assays:
Experiment in all cases: BLI (Octet), Fab, monovalent
[1] = target: SARS-CoV-2 Beta RBD (SARS-CoV-2)
[2] = target: SARS-CoV-2 Omicron BA.1 spike S1 subunit (SARS-CoV-2)
[3] = target: SARS-CoV-2 Omicron BA.2 RBD (SARS-CoV-2)

B1: VYD222 Fab (Fab, V domains shown)
VH: EVQLVESGGGLVKPGGSLRLSCAASGFTFGSYEMNWVRQAPGKGLEWVSSISEDGYSTYYPDSLKGRFTISRDSAKNSLYLQMNSLRADDTAVYYCARDFGGDTAWAGTGFTYWGQGTLVTVSS
VL: QSVLTQPPSVSGAPGQRITISCTGSSSNIGAGYDVHWYQQLPGTAPKLLIYGSSSRNYGVPDRFSGSKSGTSASLAITGLQAEDEADYYCQSYDSDLGVLYTFGTGTKVTVL
- Kd [1]: 1.74 nM
- Kd [2]: 18.1 nM
- Kd [3]: 13.5 nM
